Read-outs that look alike come from different tables or passages of the source. Values belong to the binder of their own block, whether it stands above or below them.
Assays:
[1] = target: T1, Human PD-L1-HIS (human, UniProt Q9NZQ7 19-238); assay: ForteBio, IgG, monovalent
T1 construct: also called HIS-tagged monovalent PD-L1; His-tagged human PD-L1; not shown: His tag

[2] = target: T2, Human PD-L2-HIS (human, UniProt Q9BQ51 20-220); assay: ForteBio, IgG, monovalent
T2 construct: also called His-tagged human PD-L2; not shown: His tag
T2 sequence: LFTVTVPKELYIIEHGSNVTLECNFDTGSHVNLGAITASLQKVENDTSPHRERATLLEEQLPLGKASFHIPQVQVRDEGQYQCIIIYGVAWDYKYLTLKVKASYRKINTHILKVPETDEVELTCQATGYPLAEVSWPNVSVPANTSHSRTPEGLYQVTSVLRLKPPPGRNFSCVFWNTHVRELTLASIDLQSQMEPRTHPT

[3] = target: T3, Cyno PD-L1-Fc (cynomolgus, UniProt G7PSE7 19-238); assay: ForteBio, IgG, avid
T3 construct: also called cynomolgus PD-L1
T3 sequence (G7PSE7 entry or part of it limits assumed): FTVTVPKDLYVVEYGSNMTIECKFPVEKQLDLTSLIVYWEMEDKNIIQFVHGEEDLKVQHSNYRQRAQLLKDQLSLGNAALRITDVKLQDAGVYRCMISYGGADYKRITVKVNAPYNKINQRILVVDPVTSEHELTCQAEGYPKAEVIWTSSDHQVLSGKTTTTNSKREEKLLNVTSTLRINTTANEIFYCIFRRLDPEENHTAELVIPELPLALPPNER

[4] = target: T4, Cyno PD-L2-Fc (cynomolgus, UniProt A0A2K5U5Z4 20-220); assay: ForteBio, IgG, avid
T4 construct: also called cynomolgus PD-L2; not shown: Fc
T4 sequence: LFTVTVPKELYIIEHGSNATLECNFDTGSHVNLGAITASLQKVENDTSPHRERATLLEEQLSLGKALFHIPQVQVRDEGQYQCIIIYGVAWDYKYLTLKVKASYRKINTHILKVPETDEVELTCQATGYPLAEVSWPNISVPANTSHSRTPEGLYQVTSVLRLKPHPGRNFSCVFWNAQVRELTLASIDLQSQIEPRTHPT

[5] = target: T5, Mouse PD-L1-Fc (mouse, UniProt Q9EP73 19-239, limits assumed); assay: ForteBio, IgG, avid
T5 construct: also called murine PD-L1; not shown: Fc
T5 sequence (Q9EP73 19-239 limits assumed): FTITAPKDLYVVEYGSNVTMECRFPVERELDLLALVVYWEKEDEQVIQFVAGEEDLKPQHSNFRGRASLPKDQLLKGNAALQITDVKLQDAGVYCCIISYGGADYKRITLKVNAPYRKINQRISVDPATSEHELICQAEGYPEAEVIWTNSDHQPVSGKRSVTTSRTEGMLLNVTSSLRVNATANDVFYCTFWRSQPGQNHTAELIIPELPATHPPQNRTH

[6] = target: T6, Mouse PD-L2-Fc (mouse, UniProt Q9WUL5 20-219, limits assumed); assay: ForteBio, IgG, avid
T6 construct: also called murine PD-L2; not shown: Fc
T6 sequence (looked up): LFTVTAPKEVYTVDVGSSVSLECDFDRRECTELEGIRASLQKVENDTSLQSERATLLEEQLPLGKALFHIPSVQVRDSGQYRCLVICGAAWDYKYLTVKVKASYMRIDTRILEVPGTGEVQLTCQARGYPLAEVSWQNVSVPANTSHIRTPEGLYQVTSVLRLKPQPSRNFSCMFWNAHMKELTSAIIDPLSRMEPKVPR

[7] = target: T7, human PD-L1 on CHO cells (human, UniProt Q9NZQ7 19-290); assay: cell-based or functional assay
T7 sequence (Q9NZQ7 19-290 limits assumed): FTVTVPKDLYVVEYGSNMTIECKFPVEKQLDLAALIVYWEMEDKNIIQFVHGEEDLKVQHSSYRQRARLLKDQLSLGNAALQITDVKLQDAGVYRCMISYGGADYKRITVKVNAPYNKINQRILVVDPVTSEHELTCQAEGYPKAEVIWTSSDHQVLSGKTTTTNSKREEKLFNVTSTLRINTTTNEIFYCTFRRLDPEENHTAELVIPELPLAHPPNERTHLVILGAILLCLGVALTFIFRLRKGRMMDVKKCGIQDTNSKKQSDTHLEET

[8] = target: T8, human PD-L2 on CHO cells (human, UniProt Q9BQ51 20-273); assay: cell-based or functional assay
T8 sequence: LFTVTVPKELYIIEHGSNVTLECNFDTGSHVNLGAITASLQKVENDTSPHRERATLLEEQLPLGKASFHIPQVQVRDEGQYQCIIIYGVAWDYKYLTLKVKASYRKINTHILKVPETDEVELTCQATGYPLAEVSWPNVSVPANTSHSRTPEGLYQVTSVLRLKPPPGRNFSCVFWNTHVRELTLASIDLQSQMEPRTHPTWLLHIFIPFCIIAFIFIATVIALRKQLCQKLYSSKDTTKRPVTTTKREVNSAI

[9] = target: T3, Cyno PD-L1-Fc; assay: ForteBio Octet, IgG, avid
[10] = target: T9, Human PD-L1-Fc (human, UniProt Q9NZQ7 19-238); assay: ForteBio Octet, IgG, avid
T9 construct: also called dimeric PD-L1; PD-L1 (dimeric ligand); not shown: human IgG1 Fc constant region
T9 sequence (Q9NZQ7 19-238 limits assumed): as the sequence (G7PSE7 entry or part of it limits assumed) above, with T33A, S34A, N62S, Q68R, R82Q, L173F, A185T, I192T, L215H counted along it

[11] = target: T4, Cyno PD-L2-Fc; assay: ForteBio Octet, IgG, avid
[12] = target: T10, Human PD-L2-Fc (human, UniProt Q9BQ51 20-220); assay: ForteBio Octet, IgG, avid
T10 construct: also called dimeric PD-L2; PD-L2 (dimeric ligand); not shown: human IgG1 Fc constant region
T10 sequence: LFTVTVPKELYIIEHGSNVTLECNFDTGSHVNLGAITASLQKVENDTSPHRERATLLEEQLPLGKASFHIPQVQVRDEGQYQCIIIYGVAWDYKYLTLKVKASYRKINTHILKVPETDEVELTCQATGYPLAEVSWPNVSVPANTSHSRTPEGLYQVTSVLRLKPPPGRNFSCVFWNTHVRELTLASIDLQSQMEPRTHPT

[13] = target: T5, Mouse PD-L1-Fc; assay: ForteBio Octet, IgG, avid
[14] = target: T6, Mouse PD-L2-Fc; assay: ForteBio Octet, IgG, avid
[15] = target: T1, Human PD-L1-HIS; assay: ForteBio, IgG, monovalent; remark: listed apart in the source
[16] = target: T2, Human PD-L2-HIS; assay: ForteBio, IgG, monovalent; remark: listed apart in the source
[17] = target: T7, human PD-L1 on CHO cells; assay: cell-based or functional assay; remark: listed apart in the source
[18] = target: T8, human PD-L2 on CHO cells; assay: cell-based or functional assay; remark: listed apart in the source
[19] = target: T3, Cyno PD-L1-Fc; assay: ForteBio, IgG, avid; remark: listed apart in the source
[20] = target: T4, Cyno PD-L2-Fc; assay: ForteBio, IgG, avid; remark: listed apart in the source
[21] = target: T5, Mouse PD-L1-Fc; assay: ForteBio, IgG, avid; remark: listed apart in the source
[22] = target: T6, Mouse PD-L2-Fc; assay: ForteBio, IgG, avid; remark: listed apart in the source
[23] = target: T9, Human PD-L1-Fc; assay: ForteBio Octet, Fab, monovalent
Protocol: (§1) ForteBio KD measurements—ForteBio affinity measurements were performed on an Octet® RED384 generally as previously described (see, e.g., Estep et al., 2013). Briefly, ForteBio affinity measurements were performed by loading IgGs on-line onto AHQ sensors. Sensors were equilibrated off-line in assay buffer for 30 min and then monitored on-line for 60 seconds for baseline establishment. Sensors with loaded IgGs were exposed to 100 nM antigen for 3 minutes, and afterwards were transferred to assay buffer for 3 min for off-rate measurement. For monovalent affinity assessment Fabs were used instead of IgGs. For this assessment the […] Fc fusion antigen was loaded on-line onto the AHQ sensors. Sensors were equilibrated off-line in assay buffer for 30 min and then monitored on-line for 60 seconds for baseline establishment. Sensors with loaded antigen were exposed to 100 nM Fab for 3 minutes, and afterwards they were transferred to assay buffer for 3 min for off-rate measurement. All kinetics were analyzed using the 1:1 binding model.

[24] = target: T10, Human PD-L2-Fc; assay: ForteBio Octet, Fab, monovalent
Protocol: as §1

[25] = target: T9, Human PD-L1-Fc; assay: ForteBio, Fab, monovalent
Protocol: as §1

[26] = target: T10, Human PD-L2-Fc; assay: ForteBio, Fab, monovalent
Protocol: as §1

[27] = target: T11, Human b-PD-L2-His (human, UniProt Q9BQ51 20-220, biotinylated (b-); sites not stated); assay: MSD-SET, Fab, monovalent
T11 construct: Antigen of the MSD-SET measurements; also called biotinylated human PD-L2-His; not shown: His tag
T11 sequence: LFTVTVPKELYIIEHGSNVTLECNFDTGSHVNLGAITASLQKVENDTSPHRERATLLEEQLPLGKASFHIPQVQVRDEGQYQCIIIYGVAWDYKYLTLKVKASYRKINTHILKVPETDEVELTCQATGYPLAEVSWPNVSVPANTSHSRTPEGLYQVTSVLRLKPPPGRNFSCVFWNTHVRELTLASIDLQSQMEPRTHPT
Protocol: (§2) Briefly, solution equilibrium titrations (SET) were performed in PBS +0.1% IgG-Free BSA (PBSF) with antigen held constant at 50 pM and incubated with 3- to 5-fold serial dilutions of Fab starting at 20 nM. Antibodies (20 nM in PBS) were coated onto standard bind MSD®-ECL plates overnight at 4° C. or at room temperature for 30 min. Plates were then blocked by BSA for 30 min with shaking at 700 rpm, followed by three washes with wash buffer (PBSF+0.05% Tween 20). SET samples were applied and incubated on the plates for 150 s with shaking at 700 rpm followed by one wash. Antigen captured on a plate was detected with 250 ng/mL sulfotag-labeled streptavidin in PBSF by incubation on the plate for 3 min. The plates were washed three times with wash buffer and then read on the MSD® Sector Imager 2400 instrument using 1× Read Buffer T with surfactant. The percent free antigen was plotted as a function of titrated antibody in Prism and fit to a quadratic equation to extract the KD. To improve throughput, liquid handling robots were used throughout MSD®-SET experiments, including SET sample preparation.

[28] = target: T12, Human b-PD-L1-His (human, UniProt Q9NZQ7 19-238, biotinylated (b-); sites not stated); assay: MSD-SET, Fab, monovalent
T12 construct: Antigen of the MSD-SET measurements; also called biotinylated human PD-L1-His; not shown: His tag
T12 sequence (Q9NZQ7 19-238 limits assumed): as the sequence (G7PSE7 entry or part of it limits assumed) above, with T33A, S34A, N62S, Q68R, R82Q, L173F, A185T, I192T, L215H counted along it
Protocol: as §2

[29] = target: T11, Human b-PD-L2-His; assay: MSD-SET, Fab, monovalent; remark: listed apart in the source
Protocol: as §2

[30] = target: T12, Human b-PD-L1-His; assay: MSD-SET, Fab, monovalent; remark: listed apart in the source
Protocol: as §2

T1 sequence (Q9NZQ7 19-238 limits assumed): as the sequence (G7PSE7 entry or part of it limits assumed) above, with T33A, S34A, N62S, Q68R, R82Q, L173F, A185T, I192T, L215H counted along it

B1: BiPDL3-14 (antibody, V domains shown)
VH: QVQLQQWGAGLLKPSETLSLTCAVYGGSLSGYPWSWIRQPPGKGLEWIGETDVSGWTDYNPSLKSRVTISVDTSKNQFSLKLSSVTAADTAVYYCARDGRRMGTPSFDIWGQGTMVTVSS
VL: DIQMTQSPSSVSASVGDRVTITCRASQGINSFLAWYQQKPGKAPKLLIYAASSLNSGVPSRFSGSGSGTDFTLTISSLQPEDFATYYCQKAVYFPPTFGGGTKVEIK
notes: IgG; also called ADI-37464; 37464
Kd [1]: 3.93 nM | Kd [2]: 0.684 nM | Kd [3]: 0.371 nM | Kd [4]: 0.543 nM | Kd [5]: 2.34 nM | Kd [6]: 0.533 nM | EC50 (read off the curve); Luc Activity, Promega CHO-PDL1/PD-L2 dual cells with NFAT-Luc Jurkat T cells (PD-L1 and PD-L2 not separable) [7]: ~2 nM | EC50 (read off the curve); Luc Activity, Promega CHO-PDL1/PD-L2 dual cells with NFAT-Luc Jurkat T cells (PD-L1 and PD-L2 not separable) [8]: ~2 nM

B2: BiPDL3-13 (antibody, V domains shown)
VH: QVQLQQWGAGLLKPSETLSLTCAVYGGSLSGYPWSWIRQPPGKGLEWIGETDVSGWTDYNPSLKSRVTISVDTSKNQFSLKLSSVTAADTAVYYCARDGRRMGTPSFDIWGQGTMVTVSS
VL: DIQLTQSPSSVSASVGDRVTITCRASQGISSWLAWYQQKPGKAPKLLIYAASSLQSGVPSRFSGSGSGTDFTLTISSLQPEDFATYYCQQYVYFPPTFGGGTKVEIK
notes: Third generation, IgG
Kd [9]: 2.34 nM | Kd [10]: 3.28 nM | Kd [11]: 0.688 nM | Kd [12]: 0.431 nM | binding result [13]: no binding (tested: 100 nM antigen) | Kd [14]: 1.22 nM

B4: BiPDL4-34 Fab (Fab, V domains shown)
VH: QVQLVESGGGVIQPGRSLRLSCAASGFTFSAYLMHWVRQAPGKGLEWVAAIGYDGMNKYYADSVKGRFTISRDNSKNTLYLQMNSLRAEDTAVYYCARAGIEYSYAYTDYWGQGTLVTVSS
VL: EIVLTQSPGTLSLSPGERATLSCRASQFVYSSDLAWYQQKPGQAPRLLIYGASARAAGIPDRFSGSGSGTDFTLTISRLEPEDFAVYYCMQFGWWPPRTFGGGTKVEIK
notes: Fab made by papain digestion of the IgG
Kd [23]: 6.85 nM | Kd [24]: 0.56 nM | Kd [25]: 2.17 nM | Kd [26]: 0.56 nM | Kd [27]: 0.052 nM | Kd [28]: 0.96 nM | Kd [29]: 0.052 nM | Kd [30]: 0.96 nM

The next lines start with the values.

Kd [15]: 7.89 nM | Kd [16]: 0.889 nM | EC50 (read off the curve); Fold induction of luciferase, Promega: CHO-PD-L1/PD-L2 dual cells with PD-1 Jurkat reporter cells (PD-L1 and PD-L2 not separable) [17]: ~1 nM | EC50 (read off the curve); Fold induction of luciferase, Promega: CHO-PD-L1/PD-L2 dual cells with PD-1 Jurkat reporter cells (PD-L1 and PD-L2 not separable) [18]: ~1 nM | Kd [19]: 0.555 nM | Kd [20]: 0.417 nM | Kd [21]: 0.793 nM | Kd [22]: 4.14 nM
B3: BiPDL4-44 (antibody, V domains shown)
VH: QVQLVESGGGVIQPGRSLRLSCAASGFTFSAYLMHWVRQAPGKGLEWVAAIGYDGMNKYYADSVKGRFTISRDNSKNTLYLQMNSLRAEDTAVYYCARAGIEYSYAYTDYWGQGTLVTVSS
VL: EIVLTQSPGTLSLSPGERATLSCRASHSVVSSYLAWYQQKPGQAPRLLIYGASSREDGIPDRFSGSGSGTDFTLTISRLEPEDFAVYYCVQFGWWPPRTFGGGTKVEIK
notes: Fourth generation, IgG

Kd [23]: 2.26 nM | Kd [24]: 0.402 nM | Kd [25]: 0.692 nM | Kd [26]: 0.402 nM | Kd [27]: 0.11 nM | Kd [28]: 0.12 nM | Kd [29]: 0.11 nM | Kd [30]: 0.12 nM
B5: BiPDL4-14 Fab (Fab, V domains shown)
VH: QVQLVESGGGVVQPGRSLRLSCAASGFTFDEYGMHWVRQAPGKGLEWVAVIGYDGLNKYYADSVKGRFTISRDNSKNTLYLQMNSLRAEDTAVYYCARAGIEYSYAYTDYWGQGTLVTVSS
VL: EIVLTQSPGTLSLSPGERATLSCRASQFVYSSDLAWYQQKPGQAPRLLIYGASTRKTGIPDRFSGSGSGTDFTLTISRLEPEDFAVYYCLQFGWWPPRTFGGGTKVEIK
notes: as for B4

Reference: US20250059282A1 (University of Texas, published 2025)
